Reference: publication PMC5071727, “A Structure‐Guided Switch in the Regioselectivity of a Tryptophan Halogenase” (Chembiochem, 2016)

How the values were obtained:
Assay in all cases: steady-state chlorination kinetics
Assay type in all cases: biochemical, Streptomyces toxytricini
Settings in all cases: wild type; kinetic assay conditions not given
[1] = substrate: N[C@@H](Cc1c[nH]c2ccccc12)C(=O)O
Description: (§1) steady-state chlorination kinetics on SttH

[2] = substrate: Nc1ccccc1C(=O)C[C@H](N)C(=O)O
Description: as §1

[3] = substrate: NC(=O)c1ccccc1N
Description: as §1

B1: SttH (Streptomyces toxytricini) (protein)
chain: MNTRNPDKVVIVGGGTAGWMTASYLKKAFGERVSVTLVESGTIGTVGVGEATFSDIRHFFEFLDLREEEWMPACNATYKLAVRFQDWQRPGHHFYHPFEQMRSVDGFPLTDWWLQNGPTDRFDRDCFVMASLCDAGRSPRYLNGSLLQQEFDERAEEPAGLTMSEHQGKTQFPYAYHFEAALLAEFLSGYSKDRGVKHVVDEVLEVKLDDRGWISHVVTKEHGDIGGDLFVDCTGFRGVLLNQALGVPFVSYQDTLPNDSAVALQVPLDMEARGIPPYTRATAKEAGWIWTIPLIGRIGTGYVYAKDYCSPEEAERTLREFVGPEAADVEANHIRMRIGRSEQSWKNNCVAIGLSSGFVEPLESTGIFFIHHAIEQLVKHFPAGDWHPQLRAGYNSAVANVMDGVREFLVLHYLGAARNDTRYWKDTKTRAVPDALAERIERWKVQLPDSENVFPYYHGLPPYSYMAILLGTGAIGLRPSPALALADPAAAEKEFTAIRDRARFLVDTLPSQYEYFAAMGQRV
notes: wild type, purified recombinant from E. coli; dimer in crystal
Work on B1 yielded a Km [1] of 0.8 ± 0.1 µM, a kcat [1] of 0.0108 ± 0.000333 s⁻¹ and a kcat/Km [1] of 13700 ± 1580 M⁻¹ s⁻¹. For the same protein, the Km [2] was 241 ± 32 µM, the kcat [2] was 0.0085 ± 0.000333 s⁻¹ and the kcat/Km [2] was 35 ± 5 M⁻¹ s⁻¹. The Km [3] was 1075 ± 154 µM, the kcat [3] was 0.0202 ± 0.000667 s⁻¹ and the kcat/Km [3] was 18.3 ± 2.83 M⁻¹ s⁻¹.
